Source: paper PMC4833410, “Structure-Guided Mutations in the Terminal Organelle Protein MG491 Cause Major Motility and Morphologic Alterations on Mycoplasma genitalium” (PLoS Pathogens, 2016)

Legend:
[1] = biological target: MG491-Nt (residues 1 to 308) (Mycoplasma genitalium G37) (UniProt Q9ZB78); test: SEC; Superdex 200 16/60 gel filtration column, 0.05 M Tris-HCl (pH 8.0), 0.15 M NaCl; apparent molecular weight
[2] = biological target: MG491-Nt (residues 1 to 308) (Mycoplasma genitalium G37) (UniProt Q9ZB78); test: native MS; nano-ElectroSpray Ionization Mass Spectrometry, 10 μM MG491-Nt in 100 mM NH4OAc, acquisition range 500-8000 m/z
[3] = biological target: MG491-Nt (residues 1 to 308) (Mycoplasma genitalium G37) (UniProt Q9ZB78); test: crystal structure; vapour diffusion at 20°C, 0.2 M lithium sulphate, 25% PEG 3350, pH 6.5-8.5; space group P2(1)2(1)2, four subunits in the asymmetric unit; SAD on seleno methionine MG491-Nt, averaging between crystals
[4] = biological target: the molecule itself; test: as above

MG491-Nt (residues 1 to 308) (from UniProt Q9ZB78 1-308) (domain or fragment)
stoichiometry N [1]: 4
stoichiometry N [2]: 4
stoichiometry N [3]: 4

B1: seleno methionine-labeled MG491-Nt (domain or fragment)
chain: MVNNEYQQLNTLVESDDEADLVIANLVKQLNELKQMLVSLDNQEASATAVTDKKEEEYNQNQSSFHNFSKETLQKQAKRGFLLLERCSLVGLQQLELEYVNLLGRSFDSYQQKTELLNNLKELVDEHFSDTEKIINTLEKIFDVIGGSEYTPVLNSFFNKLLSDPDPMQREIGLRQFIITLRQRFKKLSQKIDSSLKQIETEAKMATEQVQNSEVMFGPPDIANDHELNLNWPDSETDAILSSMENELEAALLAKHQEEPPLIVTPPSLIKPTVSQPEVEVVTPTNNTNFQPQVDLKPTDLKKQQKKK
modifications: seleno methionines at 36, 168 and 205
notes: MG491 of Mycoplasma genitalium G37, residues 1-308, with Ile36, Ile168 and Ile205 replaced by (seleno)methionine; residues 65-204, 67-203, 66-203 and 62-205 of subunits A-D are seen in the structure; also called Seleno methionine MG491-Nt; MG491-Nt variant with Ile36, Ile168, Ile205 replaced by seleno methionines; source: E. coli BL21 (DE3) in SelenoMet medium, purified (HisTrap HP, Superdex 200 …)
stoichiometry N [4]: 4

B2: full length MG491 protein (residues 1 to 346) (natural protein)
chain: MVNNEYQQLNTLVESDDEADLVIANLVKQLNELKQILVSLDNQEASATAVTDKKEEEYNQNQSSFHNFSKETLQKQAKRGFLLLERCSLVGLQQLELEYVNLLGRSFDSYQQKTELLNNLKELVDEHFSDTEKIINTLEKIFDVIGGSEYTPVLNSFFNKLLSDPDPIQREIGLRQFIITLRQRFKKLSQKIDSSLKQIETEAKIATEQVQNSEVMFGPPDIANDHELNLNWPDSETDAILSSMENELEAALLAKHQEEPPLIVTPPSLIKPTVSQPEVEVVTPTNNTNFQPQVDLKPTDLKKQQKKKPLNFITRPVFKSNLPPKLSKDDIVHYAHQLLEKNTHNE
notes: MG491, terminal organelle protein of Mycoplasma genitalium G37, residues 1-346; the TGA codon of Trp232 was changed to TGG for expression in E. coli (no change of the protein); Cloned in pET21d between NdeI and XhoI; In the crystals the C-terminal region was lost by proteolysis; also called MG_491 gene product; wild type MG491; source: E. coli BL21 (DE3), purified (HisTrap HP, Superdex 200 16/60)
stoichiometry N [4]: 4
